{
  "source": "paper PMC6668832",
  "about": "“Structural basis for recognition of the tumor suppressor protein PTPN14 by the oncoprotein E7 of human papillomavirus” (PLoS Biology, 2019)",
  "binders": {"B1": {"name": "PTP domain of PTPN21 (residues 873–1174) (domain or fragment, human, UniProt Q16825 873-1174, looked up)", "chain": "EVATRATNDERCKILEQRLEQGMVFTEYERILKKRLVDGECSTARLPENAERNRFQDVLPYDDVRVELVPTKENNTGYINASHIKVSVSGIEWDYIATQGPLQNTCQDFWQMVWEQGIAIIAMVTAEEEGGREKSFRYWPRLGSRHNTVTYGRFKITTRFRTDSGCYATTGLKMKHLLTGQERTVWHLQYTDWPEHGCPEDLKGFLSYLEEIQSVRRHTNSTSDPQSPNPPLLVHCSAGVGRTGVVILSEIMIACLEHNEVLDIPRVLDMLRQQRMMLVQTLCQYTFVYRVLIQFLKSSRLI", "notes": "human PTPN21, PTP domain, residues 873-1174; also called PTPN21 PTP domain; PTPD1; source: E. coli, modified pPRoEX HTa, purified (Ni-NTA, TEV, second Ni-NTA); not shown: His10, N-terminal, cleaved; green fluorescent protein, N-terminal, cleaved"}, "B2": {"name": "PTP domain (residues 886–1187) of human PTPN14 (domain or fragment, UniProt Q15678 886-1187, looked up)", "chain": "VDATRVPMDERFRTLKKKLEEGMVFTEYEQIPKKKANGIFSTAALPENAERSRIREVVPYEENRVELIPTKENNTGYINASHIKVVVGGAEWHYIATQGPLPHTCHDFWQMVWEQGVNVIAMVTAEEEGGRTKSHRYWPKLGSKHSSATYGKFKVTTKFRTDSVCYATTGLKVKHLLSGQERTVWHLQYTDWPDHGCPEDVQGFLSYLEEIQSVRRHTNSMLEGTKNRHPPIVVHCSAGVGRTGVLILSELMIYCLEHNEKVEVPMMLRLLREQRMFMIQTIAQYKFVYQVLIQFLQNSRLI", "notes": "human PTPN14, catalytic PTP domain, residues 886-1187, untagged; also called PTPN14 PTP domain; nonreceptor-type protein tyrosine phosphatase 14; source: E. coli BL21(DE3) RIL, pET21a, purified (alone or copurified with E7)"}, "B3": {"name": "C-terminal domain of E7 from HPV1a (residues 39–93) (domain or fragment)", "chain": "LVSPQQPYAVVASCAYCEKLVRLTVLADHSAIRQLEELLLRSLNIVCPLCTLQRQ", "notes": "HPV1a E7, C-terminal domain, residues 39-93; Purified similarly to HPV18 E7, whose tag was removed with TEV; the complex mass of 80–85 kDa fits a cleaved tag; also called HPV1a E7 C-terminal domain; source: E. coli, MBP-modified pET28a, copurified with PTPN14 by mixing cell lysates"}, "B4": {"name": "C-terminal domain of E7 from HPV16 (residues 45–98) (domain or fragment)", "chain": "AEPDRAHYNIVTFCCKCDSTLRLCVQSTHVDIRTLEDLLMGTLGIVCPICSQKP", "notes": "HPV16 E7, C-terminal domain, residues 45-98; Purified similarly to HPV18 E7, whose tag was removed with TEV; the complex mass of 80–85 kDa fits a cleaved tag; also called HPV16 E7 C-terminal domain; source: E. coli, MBP-modified pET28a, copurified with PTPN14 by mixing cell lysates"}, "B5": {"name": "C-terminal domain of E7 from HPV11 (residues 45–98) (domain or fragment)", "chain": "AQPLTQHYQILTCCCGCDSNVRLVVECTDGDIRQLQDLLLGTLNIVCPICAPKP", "notes": "HPV11 E7, C-terminal domain, residues 45-98; Purified similarly to HPV18 E7, whose tag was removed with TEV; the complex mass of 80–85 kDa fits a cleaved tag; also called HPV11 E7 C-terminal domain; source: E. coli, MBP-modified pET28a, copurified with PTPN14 by mixing cell lysates"}, "B6": {"name": "C-terminal domain (residues 54–105) of HPV18 E7, His6-MBP tag removed (domain or fragment)", "chain": "AEPQRHTMLCMCCKCEARIKLVVESSADDLRAFQQLFLNTLSFVCPWCASQQ", "notes": "HPV18 E7, C-terminal domain, residues 54-105; Homodimer by SEC-MALS; one zinc ion per monomer; also called HPV18 E7 C-terminal domain; HPV18 E7(54–105); source: E. coli BL21(DE3) RIL, modified pET28a, purified (Ni-NTA, TEV, second Ni-NTA, HiTrap Q, Superdex 75); not shown: His6, N-terminal, cleaved; MBP, N-terminal, cleaved"}},
  "key": {"[1]": {"target": "B6", "test": "SEC-MALS; Superdex 75 10/300 GL; 50 mM Tris-HCl pH 7.5, 200 mM NaCl, 2 mM dithiothreitol; 6 mg/mL E7 C-terminal domain, 3 mg/mL PTP domain or copurified complex", "conditions": "both partners purified"}, "[2]": {"target": "C-terminal domain of E7 from HPV38 (residues 45–100) (human papillomavirus 38 (HPV38))", "sequence (Q80908 45-100 limits assumed)": "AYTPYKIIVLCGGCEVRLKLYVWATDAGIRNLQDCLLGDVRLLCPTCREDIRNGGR", "test": "SEC-MALS; Superdex 75 10/300 GL; 50 mM Tris-HCl pH 7.5, 200 mM NaCl, 2 mM dithiothreitol; 6 mg/mL E7 C-terminal domain, 3 mg/mL PTP domain or copurified complex"}, "[3]": {"target": "C-terminal domain of E7 from HPV4 (residues 44–100) (human papillomavirus 4 (HPV4))", "sequence (Q07857 44-100 limits assumed)": "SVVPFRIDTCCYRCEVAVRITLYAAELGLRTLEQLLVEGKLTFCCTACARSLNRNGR", "test": "SEC-MALS; Superdex 75 10/300 GL; 50 mM Tris-HCl pH 7.5, 200 mM NaCl, 2 mM dithiothreitol; 6 mg/mL E7 C-terminal domain, 3 mg/mL PTP domain or copurified complex"}, "[4]": {"target": "B3", "test": "SEC-MALS; Superdex 75 10/300 GL; 50 mM Tris-HCl pH 7.5, 200 mM NaCl, 2 mM dithiothreitol; 6 mg/mL E7 C-terminal domain, 3 mg/mL PTP domain or copurified complex", "conditions": "both partners purified"}, "[5]": {"target": "B5", "test": "SEC-MALS; Superdex 75 10/300 GL; 50 mM Tris-HCl pH 7.5, 200 mM NaCl, 2 mM dithiothreitol; 6 mg/mL E7 C-terminal domain, 3 mg/mL PTP domain or copurified complex", "conditions": "both partners purified"}, "[6]": {"target": "B4", "test": "SEC-MALS; Superdex 75 10/300 GL; 50 mM Tris-HCl pH 7.5, 200 mM NaCl, 2 mM dithiothreitol; 6 mg/mL E7 C-terminal domain, 3 mg/mL PTP domain or copurified complex", "conditions": "both partners purified"}, "[7]": {"target": "B2", "test": "SEC; copurified from mixed E. coli lysates (Ni-NTA, TEV, second Ni-NTA); final HiLoad 26/600 Superdex 75 pg gel filtration, fractions on SDS-PAGE with Coomassie staining", "conditions": "both partners purified"}, "[8]": {"target": "B2", "test": "ITC; 25 °C, VP-ITC; PTP domain titrated into MBP-tagged HPV18 E7 (0.2 mM into 10 μM in Fig 1B); 20 mM Tris-HCl pH 7.5, 100 mM NaCl, 10 mM β-mercaptoethanol; one-to-one model; triplicate", "conditions": "both partners purified"}, "[9]": {"target": "B1", "test": "ITC; 25 °C, VP-ITC; PTP domain titrated into MBP-tagged HPV18 E7 (0.2 mM into 10 μM in Fig 1B); 20 mM Tris-HCl pH 7.5, 100 mM NaCl, 10 mM β-mercaptoethanol; one-to-one model; triplicate", "conditions": "both partners purified"}, "[10]": {"target": "the molecule itself", "test": "SEC-MALS; Superdex 75 10/300 GL; 50 mM Tris-HCl pH 7.5, 200 mM NaCl, 2 mM dithiothreitol; 6 mg/mL E7 C-terminal domain, 3 mg/mL PTP domain or copurified complex"}},
  "data": [
    {"binder": "B1", "values": [
      {"measurement": "stoichiometry N", "setting": "[1]", "result": "1 PTPN21 per E7 (2:2)"}
    ]},
    {"binder": "B2", "values": [
      {"measurement": "stoichiometry N (PTPN14 per E7 (2:2))", "setting": "[2]", "result": 1},
      {"measurement": "stoichiometry N (PTPN14 per E7 (2:2))", "setting": "[3]", "result": 1},
      {"measurement": "stoichiometry N", "setting": "[4]", "result": "1 PTPN14 per E7 (2:2)"},
      {"measurement": "stoichiometry N", "setting": "[5]", "result": "1 PTPN14 per E7 (2:2)"},
      {"measurement": "stoichiometry N", "setting": "[6]", "result": "1 PTPN14 per E7 (2:2)"},
      {"measurement": "stoichiometry N", "setting": "[1]", "result": "1 PTPN14 per E7 (2:2)"}
    ]},
    {"binder": "B3", "values": [
      {"measurement": "binding result", "setting": "[7]", "result": "binds"}
    ]},
    {"binder": "MBP-tagged HPV18 E7 C-terminal domain (residues 54–105) (domain or fragment, HPV18 E7, C-terminal domain, residues 54-105; also called His6–MBP-tagged C-terminal domain of HPV18 E7; source: E. coli BL21(DE3) RIL, modified pET28a, purified; not shown: His6, N-terminal, kept; MBP, N-terminal, kept) AEPQRHTMLCMCCKCEARIKLVVESSADDLRAFQQLFLNTLSFVCPWCASQQ", "values": [
      {"measurement": "Kd", "setting": "[8]", "result": 18.2, "unit": "nM"},
      {"measurement": "Kd", "setting": "[9]", "result": 5.81, "unit": "nM"}
    ]},
    {"binder": "B4", "values": [
      {"measurement": "binding result", "setting": "[7]", "result": "binds"}
    ]},
    {"binder": "B5", "values": [
      {"measurement": "binding result", "setting": "[7]", "result": "binds"}
    ]},
    {"binder": "B6", "values": [
      {"measurement": "stoichiometry N", "setting": "[10]", "result": 2}
    ]}
  ]
}
